T1: human iRhom2 (Homo sapiens, UniProt Q6PJF5)
T1 construct: MEF-DKO-hiR2-FL-WT-T7 cells stably expressing human iRhom2 full length wild type; expressed in transfected cells; host or cells: immortalized iRhom1/2-/- double knockout mouse embryonic fibroblasts, pMSCV retroviral infection
T1 sequence (Q6PJF5 1-856): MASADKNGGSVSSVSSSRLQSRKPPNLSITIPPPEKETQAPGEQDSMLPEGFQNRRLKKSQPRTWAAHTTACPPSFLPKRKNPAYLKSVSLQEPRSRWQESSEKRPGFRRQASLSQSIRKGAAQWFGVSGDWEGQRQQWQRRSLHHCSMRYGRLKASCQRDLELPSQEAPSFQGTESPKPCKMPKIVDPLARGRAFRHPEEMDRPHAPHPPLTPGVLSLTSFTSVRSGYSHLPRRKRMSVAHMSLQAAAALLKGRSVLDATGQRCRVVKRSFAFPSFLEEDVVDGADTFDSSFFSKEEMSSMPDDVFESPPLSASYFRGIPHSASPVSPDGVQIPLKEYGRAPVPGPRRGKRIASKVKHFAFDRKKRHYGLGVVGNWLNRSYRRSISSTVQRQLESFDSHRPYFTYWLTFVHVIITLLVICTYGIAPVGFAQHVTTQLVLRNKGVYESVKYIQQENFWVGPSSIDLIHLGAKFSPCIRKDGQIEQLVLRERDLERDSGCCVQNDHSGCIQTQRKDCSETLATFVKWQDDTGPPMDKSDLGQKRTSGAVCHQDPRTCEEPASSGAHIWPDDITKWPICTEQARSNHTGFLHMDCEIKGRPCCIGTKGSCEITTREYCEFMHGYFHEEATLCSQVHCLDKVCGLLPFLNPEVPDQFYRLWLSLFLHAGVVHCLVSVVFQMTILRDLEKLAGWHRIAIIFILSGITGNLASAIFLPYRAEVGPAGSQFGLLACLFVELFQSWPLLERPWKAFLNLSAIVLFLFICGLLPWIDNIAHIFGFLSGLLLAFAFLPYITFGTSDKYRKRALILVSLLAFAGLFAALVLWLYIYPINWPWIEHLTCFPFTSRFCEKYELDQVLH


Target: T1, human iRhom2
Assay: Affinity determination by indirect FACS scatchard analysis on L929-2041-hiR2-FL-WT-T7 cells
Assay type: binding
Details: 22 two-fold dilutions starting at 160 μg/ml, on ice 1 hour
Description: In this study, affinity measurements of the humanized antibodies 16-B-03, 16-B-05, 16-B-07, 23-B-04, 42-B-02 and 42-B-04 of the invention were performed by indirect FACS scatchard analysis on […] cells, a murine cell line expressing human iRhom2.
The resulting L929 mouse iRhom2 knock-out cell line was afterwards infected with different human iRhom2 constructs to obtain cell line derivatives, stably expressing different human iRhom2 proteins, that allow for binding analyses to different iRhom2 variants in the same genetic background.
In brief, mRhbdf2.3 IVT gRNA ([…]) was synthesized at Thermo Fisher Scientific GeneArt GmbH, Regensburg, Germany. One day post seeding in 24 well plates, L929 parental cells were transfected according to GeneArt CRISPR Nuclease mRNA user guide (Thermo Fisher Scientific, USA) with the gRNA/GeneArt Platinium Cas9 Nucelase (Thermo Fisher Scientific, USA) mix using Lipofectamine CRISPRMAX Transfection Reagent (Thermo Fisher Scientific, USA). 3 days post transfection, cells were lysed and DNA was extracted for amplification of specific PCR products using the mRhbdf2.3 fwd ([…])/mRhbdf2.3 rev ([…]) 5primer pair (Thermo Fisher Scientific, USA). […] Cleavage assay PCR products were also analyzed on Invitrogen 2% E-Gel Size Select agarose gels. Two rounds of subsequent sub cloning of the identified polyclonal L929 population using limited dilution technique were performed, using the Cleavage Detection Kit for identification of positive sub clones. Thereby, the most promising positive sub clone identified in the first round, named 1029, was further sub cloned in the second round to obtain the final clone, named 2041. The monoclonal cell population derived from this sub clone is named L929-2041 and was used for subsequent infection (according to the procedure described in Example 3) with the human iRhom2 construct hiR2-FL-WT-T7 for the generation of the cell lines L929-2041-hiR2-FL-WT-T7.
In brief, L929-2041-hiR2-FL-T7 were harvested with 10 mM EDTA in PBS, washed and resuspended in FACS buffer (PBS, 3% FBS, 0.05% sodium azide), and seeded in Nunc U-bottom 96-well plates (Thermo Fisher Scientific, USA) at approximately 3×10^5 cells per well. In order to pellet cells and remove supernatants, the plates were centrifuged at 1,500 rpm and 4° C. for 3 minutes. For primary staining, cells were resuspended in 100 μl per well of either FACS buffer alone (controls) or serial two-fold dilutions (in total 22 concentrations) of the humanized antibodies 16-B-03, 16-B-05, 16-B-07, 23-B-04, 42-B-02 and 42-B-04 of the invention in FACS buffer starting at 160 μg/ml and incubated on ice for 1 hour. Afterwards, plates were centrifuged at 1,500 rpm and 4° C. for 3 minutes and washed twice with 200 μl per well of FACS buffer. For secondary staining, cells were spun down and resuspended in 100 μl per well of PE-conjugated goat anti-human IgG F(ab′)2 detection fragment (Dianova, Germany) diluted 1:100 in FACS buffer. Protected from light, the cell suspensions were incubated on ice for 1 hour. Plates were then centrifuged at 1,500 rpm and 4° C. for 3 minutes and washed three times with 200 μl per well of FACS buffer. Finally, cells were resuspended in 150 μl per well of FACS buffer and analyzed using a BD Accuri™ C6 Plus flow cytometer (Becton Dickinson, Germany). Applying Prism8 software (GraphPad Software, USA), the respective KD value for each of the antibodies of the invention were calculated.

Molecule | KD values for binding to L929-2041-hiR2-FL-T7 cells
23-B-04: humanized antibody binding human iRhom2; HCVD SEQ ID NO 25, LCVD SEQ ID NO 29 (antibody, V domains shown, antibody sequences) VH: QVTLRESGPALVKPTQTLTLTCTFSGFSLSTFGMGVGWIRQPPGKALEWLAHIWWDDEKYYNSALKSRLTISKDTSKNQVVLTITNMDPVDTATYYCARISNYGSNYWYFNVWGQGTLVTVSS VL: AIQLTQSPSSLSASVGDRVTITCRASSSVSYMYWYQQKPGKAPKVLIYDTSNLASGVPSRFSGSGSGTDYTLTISSLQPEDFATYYCQQWNAYPLTFGQGTKLEIK | subnanomolar to low nanomolar range
42-B-02: humanized antibody binding human iRhom2; HCVD SEQ ID NO 33, LCVD SEQ ID NO 37 (antibody, V domains shown, antibody sequences) VH: QVTLRESGPALVKPTQTLTLTCTFSGFSLSTFGRGVGWIRQPPGKALEWLAHIWWDDEKYYNSALKSRLTISKDTSKNQVVLTITNMDPVDTATYYCARIQNYGSNYWYFDVWGQGTLVTVSS VL: AIQLTQSPSSLSASVGDRVTITCRASSRISYMFWYQQKPGKAPKVLIYDTSNLASGVPSRFSGSGSGTDYTLTISSLQPEDFATYYCQQWNSYPLTFGQGTKLEIK | subnanomolar to low nanomolar range
42-B-04: humanized antibody binding human iRhom2; HCVD SEQ ID NO 41, LCVD SEQ ID NO 45 (antibody, V domains shown, antibody sequences) VH: QVTLRESGPALVKPTQTLTLTCTFSGFSLSTFGRGVGWIRQPPGKALEWLAHIWWDDEKYYNSALKSRLTISKDTSKNQVVLTITNMDPVDTATYYCARIQNYGSNYWYFDVWGQGTLVTVSS VL: AIQLTQSPSSLSASVGDRVTITCRASSRISYMFWYQQKPGKAPKVLIYDTSNLASGVPSRFSGSGSGTDYTLTISSLQPEDFATYYCQQWNAYPLTFGQGTKLEIK | subnanomolar to low nanomolar range

Second part, the molecule after the results:

KD values for binding to L929-2041-hiR2-FL-T7 cells | Molecule
subnanomolar to low nanomolar range | 16-B-03: humanized antibody binding human iRhom2; HCVD SEQ ID NO 1, LCVD SEQ ID NO 5 (antibody, V domains shown, antibody sequences) VH: QVTLRESGPALVKPTQTLTLTCTFSGFSLSTFALGVGWIRQPPGKALEWLAHIWWDDDKYYNPALKSRLTISKDTSKNQVVLTITNMDPVDTATYYCARITTYYYGMDYWGQGTLVTVSS VL: EIVMTQSPDFQSVTPKEKVTITCRASQSIGNHLHWYQQKPDASPKLLIKYASQSISGVPSRFSGSGSGTDFTLTINSLEAEDAATYFCQQSYQWPLTFGQGTKLEIK
subnanomolar to low nanomolar range | 16-B-05: humanized antibody binding human iRhom2; HCVD SEQ ID NO 9, LCVD SEQ ID NO 13 (antibody, V domains shown, antibody sequences) VH: QVTLRESGPALVKPTQTLTLTCTFSGFSLSTFALGVGWIRQPPGKALEWLAHIWWDEDKYYNPALKSRLTISKDTSKNQVVLTITNMDPVDTATYYCARITTYYYGMDYWGQGTLVTVSS VL: EIVMTQSPDFQSVTPKEKVTITCRASQSIGNHLHWYQQKPDASPKLLIKYASQSISGVPSRFSGSGSGTDFTLTINSLEAEDAATYFCQQSYNWPLTFGQGTKLEIK
subnanomolar to low nanomolar range | 16-B-07: humanized antibody binding human iRhom2; HCVD SEQ ID NO 17, LCVD SEQ ID NO 21 (antibody, V domains shown, antibody sequences) VH: QVTLRESGPALVKPTQTLTLTCTFSGFSLSTFALGVGWIRQPPGKALEWLAHIWWDEDKYYNPALKSRLTISKDTSKNQVVLTITNMDPVDTATYYCARITTYYYGMDYWGQGTLVTVSS VL: EIVMTQSPDFQSVTPKEKVTITCRASQSIGNHLHWYQQKPDASPKLLIKYASQSISGVPSRFSGSGSGTDFTLTINSLEAEDAATYFCQQSYQWPLTFGQGTKLEIK

Reference: patent US12404345B2, “Humanized antibodies against iRHOM2” (SCIRHOM GMBH, priority 2021, dated 2025)
